The results in this text go back to article PMC11340043.

The experiment concerns the target human LIFR-his (human) (UniProt P42702).

Some results are limits rather than exact numbers.

Sequence of human LIFR-his (human) (P42702 45-833): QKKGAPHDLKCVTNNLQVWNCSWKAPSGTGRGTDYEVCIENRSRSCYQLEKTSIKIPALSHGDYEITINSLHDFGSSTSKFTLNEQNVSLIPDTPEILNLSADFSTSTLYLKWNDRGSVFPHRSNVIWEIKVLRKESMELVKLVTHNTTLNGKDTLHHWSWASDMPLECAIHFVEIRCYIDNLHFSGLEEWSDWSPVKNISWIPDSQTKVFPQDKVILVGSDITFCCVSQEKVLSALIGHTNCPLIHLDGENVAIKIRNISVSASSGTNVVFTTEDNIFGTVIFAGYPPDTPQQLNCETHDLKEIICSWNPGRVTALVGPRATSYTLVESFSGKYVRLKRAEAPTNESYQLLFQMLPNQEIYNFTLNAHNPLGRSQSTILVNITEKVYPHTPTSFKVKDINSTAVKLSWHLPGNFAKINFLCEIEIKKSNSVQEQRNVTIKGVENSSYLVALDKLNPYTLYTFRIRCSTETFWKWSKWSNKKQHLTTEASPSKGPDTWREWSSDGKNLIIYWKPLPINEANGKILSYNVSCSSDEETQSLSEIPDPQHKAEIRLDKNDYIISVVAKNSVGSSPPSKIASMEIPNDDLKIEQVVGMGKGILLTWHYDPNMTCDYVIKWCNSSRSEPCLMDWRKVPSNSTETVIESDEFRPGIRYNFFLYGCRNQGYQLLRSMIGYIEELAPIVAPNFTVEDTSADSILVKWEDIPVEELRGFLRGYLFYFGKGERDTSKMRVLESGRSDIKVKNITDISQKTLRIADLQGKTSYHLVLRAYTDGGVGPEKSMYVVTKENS
Sequence of human LIF (P15018 23-202): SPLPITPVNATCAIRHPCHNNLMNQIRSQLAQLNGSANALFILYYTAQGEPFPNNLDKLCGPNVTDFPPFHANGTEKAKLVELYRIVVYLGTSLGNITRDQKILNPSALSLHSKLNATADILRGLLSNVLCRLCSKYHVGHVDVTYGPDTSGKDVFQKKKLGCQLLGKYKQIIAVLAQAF

In the case of “human LIF (from UniProt P15018 23-202) (ligand)”, the LIF-induced p-STAT3 (Tyr705) in U266 and HCT116 cells, western blot; dose-dependent inhibition by antibody 1G11, inhibition rate at 2 µg/ml 1G11 is over 90%.
